The text below walks through data of PMC6182392.

This assay addresses Filgrastim (recombinant human granulocyte-colony stimulating factor from Escherichia coli) (human) (UniProt P09919). Description: SEC; HP-SEC, TSKgel G3000SWXL, 50 mM ammonium hydrogen carbonate pH 7.0, column 30°C; expired PDgrastim diluted to 0.25 mg/ml in 100 mM sodium acetate pH 5.0; dimer and oligomer assigned by retention relative to the monomer (Ph. Eur.).

Regarding “Filgrastim (recombinant human granulocyte-colony stimulating factor from Escherichia coli) (from UniProt P09919-2 31-204) (ligand)”, the relative peak area of dimer is 3.6%, the relative peak area of oligomer is 0.1% and the stoichiometry N came out at 2.
